Results taken from patent US20170082609A1.

How the values were obtained:
[1] = target: CDHR3 Cys529→Tyr variant with Asn186→Ala (human) (UniProt Q6ZTQ4); test: virus bound to transfected HeLa cells 2 h p.i., viral RNA by qRT-PCR, against CDHR3 Cys529→Tyr without the mutation
[2] = target: CDHR3 Cys529→Tyr variant (human) (UniProt Q6ZTQ4); test: virus bound to transfected HeLa cells 2 h p.i., viral RNA by qRT-PCR
[3] = target: human cadherin-related family member 3 (CDHR3), wild-type (human) (UniProt Q6ZTQ4); test: cell-based or functional assay
[4] = target: CDHR3 Cys529→Tyr variant (human) (UniProt Q6ZTQ4); test: cell-based or functional assay
[5] = target: CDHR3 Cys529→Tyr variant with Asn186→Ala (human) (UniProt Q6ZTQ4); test: cell-based or functional assay

rhinovirus C15 (RV-C15), recombinant virus from the clinical isolate's infectious clone
percent impairment of virus binding [1]: > 70% | fold binding relative to the wild-type CDHR3 [2]: 10 fold | replication (RV-C RNA compared to input) [3]: 2 log | progeny yield relative to the wild-type CDHR3 [4]: 10 fold | replication in HeLa-E8 cells (viral RNA from 2 h to 24 h post infection) [4]: > 2 log | replication [5]: 70%
